Common to all, as to test: Crosslinking/co-immunoprecipitation/mass spectrometry (TMT quantitative proteomics) to identify irisin receptors
Holding throughout (format): binding

The target of assay [1] is T1, MLO-Y4 cell surface proteins (Mus musculus, UniProt Q8K273).
T1 construct: endogenous in cells; host or cells: MLO-Y4
T1 sequence (Q8K273 1-131): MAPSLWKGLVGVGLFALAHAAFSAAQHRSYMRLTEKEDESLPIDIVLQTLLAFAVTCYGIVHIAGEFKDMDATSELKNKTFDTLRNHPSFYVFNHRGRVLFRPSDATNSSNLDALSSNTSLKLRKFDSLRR
The following applies: TMT ratio, Mmgt1 Membrane magnesium transporter 1. The gist of the method: (§1)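 Relative protein abundance came from 6-plex TMT MS3 quantitation on an Orbitrap Fusion Lumos, after in-gel trypsin digestion of Coomassie-stained SDS-PAGE lanes. Input was a Ni-NTA pulldown (250 mM imidazole elution) of lysates from murine MLO-Y4 cells. These cells were treated on ice with His-tagged irisin or adipsin (10 nM, 20 min) in serum-free medium, then crosslinked with 1.5 mM DTSSP for 30 min.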

Assay [2] concerns the target T2, MLO-Y4 cell surface proteins (Mus musculus, UniProt Q8BFT2).
T2 construct: endogenous in cells; host or cells: MLO-Y4
T2 sequence (Q8BFT2 1-363): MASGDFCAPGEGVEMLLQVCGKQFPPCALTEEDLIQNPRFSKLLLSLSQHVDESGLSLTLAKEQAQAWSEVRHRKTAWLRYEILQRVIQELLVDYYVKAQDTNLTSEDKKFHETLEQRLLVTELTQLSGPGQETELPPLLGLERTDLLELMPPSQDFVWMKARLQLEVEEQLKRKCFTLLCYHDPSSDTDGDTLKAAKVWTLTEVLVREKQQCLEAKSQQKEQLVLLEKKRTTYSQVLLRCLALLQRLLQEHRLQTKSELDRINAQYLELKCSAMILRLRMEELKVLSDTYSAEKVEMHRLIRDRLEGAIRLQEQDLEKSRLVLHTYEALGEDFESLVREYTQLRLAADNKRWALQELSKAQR
The following applies: co-precipitated protein Haus4 (HAUS4_MOUSE). The essentials:
as §1

The target in assay [3] is T3, MLO-Y4 cell surface proteins (Mus musculus, UniProt E9Q557).
T3 construct: endogenous in cells; host or cells: MLO-Y4
The settings on record: co-precipitated protein Dsp (DESP_MOUSE). The essentials: as §1

T3 sequence (E9Q557 whole entry): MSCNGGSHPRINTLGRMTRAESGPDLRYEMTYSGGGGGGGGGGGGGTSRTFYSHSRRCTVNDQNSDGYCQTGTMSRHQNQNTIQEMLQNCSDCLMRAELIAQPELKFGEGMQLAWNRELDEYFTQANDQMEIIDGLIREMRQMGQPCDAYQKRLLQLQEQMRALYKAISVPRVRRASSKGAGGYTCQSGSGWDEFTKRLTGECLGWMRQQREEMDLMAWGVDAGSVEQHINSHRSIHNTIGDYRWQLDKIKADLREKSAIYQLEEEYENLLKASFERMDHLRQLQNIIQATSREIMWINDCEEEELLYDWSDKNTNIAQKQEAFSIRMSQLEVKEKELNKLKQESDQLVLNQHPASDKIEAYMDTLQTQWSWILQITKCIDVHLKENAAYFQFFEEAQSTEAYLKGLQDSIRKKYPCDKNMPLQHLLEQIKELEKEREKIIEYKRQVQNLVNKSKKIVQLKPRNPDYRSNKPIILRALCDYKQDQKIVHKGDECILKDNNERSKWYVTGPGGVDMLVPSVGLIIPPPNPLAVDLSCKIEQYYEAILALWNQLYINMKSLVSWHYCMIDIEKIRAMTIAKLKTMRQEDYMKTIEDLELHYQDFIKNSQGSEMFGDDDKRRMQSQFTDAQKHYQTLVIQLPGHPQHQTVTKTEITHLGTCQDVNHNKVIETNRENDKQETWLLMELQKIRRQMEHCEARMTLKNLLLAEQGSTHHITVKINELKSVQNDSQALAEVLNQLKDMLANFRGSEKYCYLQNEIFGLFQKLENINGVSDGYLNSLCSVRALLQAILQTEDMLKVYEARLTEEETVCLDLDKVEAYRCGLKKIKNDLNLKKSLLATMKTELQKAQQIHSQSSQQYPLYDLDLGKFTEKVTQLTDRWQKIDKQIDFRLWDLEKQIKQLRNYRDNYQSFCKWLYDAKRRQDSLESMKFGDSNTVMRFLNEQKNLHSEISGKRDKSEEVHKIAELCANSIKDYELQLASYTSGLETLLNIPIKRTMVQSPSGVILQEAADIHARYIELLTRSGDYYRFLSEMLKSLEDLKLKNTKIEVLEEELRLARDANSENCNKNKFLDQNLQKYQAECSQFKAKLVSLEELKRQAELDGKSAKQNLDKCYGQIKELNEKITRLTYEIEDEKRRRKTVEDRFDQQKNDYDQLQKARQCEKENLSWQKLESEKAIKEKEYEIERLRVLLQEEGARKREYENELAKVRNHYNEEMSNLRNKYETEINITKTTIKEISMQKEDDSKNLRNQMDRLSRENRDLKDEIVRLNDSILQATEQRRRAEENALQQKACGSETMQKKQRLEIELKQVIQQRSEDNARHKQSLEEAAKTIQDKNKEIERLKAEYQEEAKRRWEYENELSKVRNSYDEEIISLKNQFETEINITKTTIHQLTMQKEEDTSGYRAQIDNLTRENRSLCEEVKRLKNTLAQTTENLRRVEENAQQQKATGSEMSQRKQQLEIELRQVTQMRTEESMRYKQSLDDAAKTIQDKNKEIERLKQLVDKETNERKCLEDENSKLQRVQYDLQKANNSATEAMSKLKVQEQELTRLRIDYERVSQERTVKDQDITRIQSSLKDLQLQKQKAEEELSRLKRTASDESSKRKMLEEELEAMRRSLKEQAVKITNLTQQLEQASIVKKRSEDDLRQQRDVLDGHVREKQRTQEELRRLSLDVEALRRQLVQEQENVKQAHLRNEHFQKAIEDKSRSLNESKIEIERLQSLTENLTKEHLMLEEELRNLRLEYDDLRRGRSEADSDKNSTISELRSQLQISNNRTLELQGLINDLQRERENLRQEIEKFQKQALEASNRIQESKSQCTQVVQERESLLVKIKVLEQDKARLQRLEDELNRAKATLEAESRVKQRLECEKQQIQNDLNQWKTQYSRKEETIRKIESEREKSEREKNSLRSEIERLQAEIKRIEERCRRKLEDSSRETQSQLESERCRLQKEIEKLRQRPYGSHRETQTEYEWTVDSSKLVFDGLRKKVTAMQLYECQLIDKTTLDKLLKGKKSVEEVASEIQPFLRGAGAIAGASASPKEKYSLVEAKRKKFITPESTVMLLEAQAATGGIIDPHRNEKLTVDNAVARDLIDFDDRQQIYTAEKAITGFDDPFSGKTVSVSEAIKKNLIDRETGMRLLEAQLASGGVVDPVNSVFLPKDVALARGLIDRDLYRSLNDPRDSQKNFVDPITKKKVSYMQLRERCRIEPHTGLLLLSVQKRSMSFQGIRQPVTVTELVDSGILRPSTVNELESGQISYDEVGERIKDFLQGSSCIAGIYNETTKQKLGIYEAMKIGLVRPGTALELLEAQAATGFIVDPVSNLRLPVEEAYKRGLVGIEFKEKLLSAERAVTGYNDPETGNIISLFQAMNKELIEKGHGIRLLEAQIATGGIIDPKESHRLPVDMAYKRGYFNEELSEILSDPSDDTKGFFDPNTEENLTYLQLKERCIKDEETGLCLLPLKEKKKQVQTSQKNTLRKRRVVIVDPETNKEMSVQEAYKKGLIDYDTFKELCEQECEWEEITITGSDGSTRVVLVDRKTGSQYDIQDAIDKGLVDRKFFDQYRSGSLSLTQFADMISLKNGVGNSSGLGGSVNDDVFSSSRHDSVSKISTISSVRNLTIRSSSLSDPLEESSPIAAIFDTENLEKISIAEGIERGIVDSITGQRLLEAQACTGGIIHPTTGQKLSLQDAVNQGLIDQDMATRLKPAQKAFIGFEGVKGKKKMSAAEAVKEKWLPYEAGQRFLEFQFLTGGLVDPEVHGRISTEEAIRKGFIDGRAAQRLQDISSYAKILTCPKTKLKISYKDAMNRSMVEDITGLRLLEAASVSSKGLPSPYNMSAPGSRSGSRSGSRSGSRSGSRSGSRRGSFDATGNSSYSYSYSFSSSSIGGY

B1: irisin: secreted cleaved form of FNDC5; recombinant human/mouse irisin with C-terminal his tag produced in HEK293 cells (protein)
chain: DSPSAPVNVTVRHLKANSAVVSWDVLEDEVVIGFAISQQKKDVRMLRFIQEVNTTTRSCALWDLEEDTEYIVHVQAISIQGQSPASEPVLFKTPREAEKMASKNKDEVTMKE
modifications: left off: small tags and cut ends
notes: secreted cleaved form of FNDC5; recombinant human/mouse irisin with C-terminal his tag produced in HEK293 cells
As to B1, in assay [1], the irsin/adipsin is listed as 2.94. Further, in assay [2], the TMT signal-to-noise ratio is given as 230.984 and the “irisin/adipsin TMT signal-to-noise ratio” value came out at 0.446. In assay [3], the TMT signal-to-noise ratio worked out at 2.707 and the “irisin/adipsin TMT signal-to-noise ratio” value is listed as 0.034.
